Experimental data: patent US8288112B2, “Protein, an antibody and measurement of the protein” (P&M Venge AB, priority 2006, dated 2012)

Tests used:
[1] = Positional specificity (sn-2) assay with radiolabeled phosphatidylcholine; assay type: biochemical; conditions: 1-palmitoyl-2-[1-14C]palmitoyl-PC, 20 h at 37° C.
Protocol: Positional specificity of the purified enzyme was determined using 1-palmitoyl-2-hydroxyl-phosphatidylcholine (1-palmitoyl-2-hydroxyl-PC) and 1-palmitoyl-2-[1-^14C]palmitoyl-phosphatidylcholine (1-palmitoyl-2-[1-^14C]palmitoyl-PC) as substrates. The hydrolyzing activity of the enzyme at the position of sn-1 acyl ester bonds of glycerophospholipids was determined as described above using 1-palmitoyl-2-hydroxyl-PC as substrate. […] Radiolabeled fatty acids were quantified by scintillation counting.
Experiment D: Detection of phopholipase A2 activity. Radioactive phospholipid, 1-palmitoyl-2-[1-^14C]palmitoyl-PC was incubated without (Control) or with 1 μg of the purified protein (stored at 4° C. 16 w) for 20 h at 37° C. and radioactivity was counted as described in the materials and methods section.

[2] = Enzyme assay: free fatty acid release from phospholipid substrates (NEFA-C kit); assay type: biochemical; conditions: for activity increase by pre-incubation with released materials from PMA-induced neutrophils: partly activated protein 0.5 μg stored for 19 weeks
Protocol: Enzyme assay. The reaction mixture (40 μl final volume) contained 10 mM substrates, 100 mM phosphate buffer containing 3 mM of sodium azide (NaN3) and 0.5% Triton X-100, pH 7.4, and 0.5 μg of enzyme or as indicated. Since the formation of the product (fatty acid) was linear with time for at least 24 h under the standard conditions, the reaction mixture was incubated for 18-20 h and the reaction was stopped by cooling on ice. Free fatty acid (FFA) was determined by means of the NEFA-C kit (WAKO chemicals, Neuss, Germany) according to the instructions of the manufacturer.
Experiment A: Didecanoyl-PC was incubated with the purified protein at different time of storage and free fatty acid release was measured. Enzymatic reactions were carried out with 0.5 μg of the purified protein for 20 h at 37° C.
Experiment B: Free fatty acid release from phospholipids, didecanoyl-PC (Dideca-PC), dipalmitoyl-PC (Dipalmi-PC), phosphatidylinositol (PI), phosphatidylethanolamine (PE) and lysophosphatidylcholine (Lyso-PC) was measured. Enzymatic reactions were carried out with 0.5 μg of the purified protein (stored at 4° C. for 15 w) for 18-20 h at 37° C.
Experiment C: The purified protein (stored at 4° C. for 16 w) was preincubated at room temperature or 37° C. for 15 min with released materials (0.5 μg) induced from neutrophils by PMA before incubation with Didecanoyl-PC. Enzymatic reactions were carried out with 0.5 μg of the protein for 20 h at 37° C. and free fatty acid release was measured.
Analyses of the pH optimum, Km and Vmax. The purified protein (0.5 μg) was added to tubes containing Didecanoyl-PC at varying pH (4.0-9.0). The Km and Vmax were calculated from Hanes plots of s/vi on Didecanoyl-PC concentration (s).

B1: HPLB-II: Novel phospholipase B from human neutrophil granules; about 130 kDa oligomer of 25 and 45 kDa fragments of hypothetical protein FLJ22662 (protein)
chain 1: MPAEKTVQVKNVMDKNGDAYGFYNNSVKTTGWGILEIRAGYGSQTLSNEIIMFVAGFLEGYLTAPHMNDHYTNLYPQLITKPSIMDKVQDFMEKQDKWTRKNIKEYKTDSFWRHTGYVMAQIDGLYVGAK
chain 2: VLPGFENILFAHSSWYTYAAMLRIYKHWDFNIIDKDTSSSRLSFSSYPGFLESLDDFYILSSGLILLQTTNSVFNKTLLKQVIPETLLSWQRVRVANMMADSGKRWADIFSKYNSGTYNNQYMVLDLKKVKLNHSLDKGTLYIVEQIPTYVEYSEQTDVLRKGYWPSYNVPFHEKIYNWSGYPLLVQKLGLDYSYDLAPRAKIFRRDQGKVTDTASMKYIMRYNNYKKDPYSRGDPCNTICCREDLNSPNPSPGGCYDTKVADIYLASQYTSYAISGPTVQGGLPVFRWDRFNKTLHQGMAEVYNFDFITMKPILK
- removal of fatty acid from the sn-2 position [1]: removed fatty acid from the sn-2 position
- pH optimum ([2]; didecanoyl-PC as substrate, incubated at 37° C.): 7.4
- Vmax ([2]; didecanoyl-PC substrate, Hanes plots, protein stored for 15 weeks): 21.4 nM/min/mg
- deacylation activity ([2]; freshly purified protein, didecanoyl-PC, dipalmitoyl-PC, PI, PE, Lyso-PC substrates): No activity was detected
- activity increase by pre-incubation with released materials from PMA-induced neutrophils ([2]; pre-incubation 15 min at 37° C.): ~30%
- activity increase by pre-incubation with released materials from PMA-induced neutrophils ([2]; pre-incubation 15 min at room temperature): about 10%
- deacylation activity on didecanoyl-PC ([2]; purified protein stored at 4° C. for some period of time): removed fatty acid from didecanoyl-PC
- deacylation activity on Lyso-PC ([2]; stored purified protein): showed deacylation activity
- deacylation activity on PE ([2]; stored purified protein): showed deacylation activity
- deacylation activity on PI ([2]; stored purified protein): showed deacylation activity
